Protein stability index data for 37 sequences are collected here from the supplement of paper PMC10567573.

± gives the standard deviation.

This data set can be described thus: protein stability index of a GFP-peptide fusion (GPS, HEK-293T) (PSI 1-6); higher = more stable. Particulars: c terminus: a fixed tail appended.
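Further: 24-mer peptide tiles fused after GFP, lentivirally expressed, FACS-sorted into six equal bins by GFP/DsRed ratio, decoded by Illumina sequencing, PSI is the read-weighted mean bin number.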

SITVSKVDKDQPSILNSCEDPVPG [FBXO34]: the protein stability index is, setting by setting: (treatment: DMSO) 5.25 ± 0.22; (treatment: MLN4924 1 uM, 8 h) 5.25 ± 0.12.

For AYLVTVRGNLSILAAVLVEPKLHT [OR3A1], the protein stability index amounted to 3.21 ± 0.75 (treatment: DMSO) and 2.71 ± 0.68 (treatment: MLN4924 1 uM, 8 h).

DRFSGETSAAALSPMSAATLGGLN [SMTNL2]: the protein stability index is, setting by setting: (treatment: DMSO) 4.46 ± 0.14; (treatment: MLN4924 1 uM, 8 h) 4.21 ± 0.24.

With RVKLEEDPDGEEGSSIPWNHLPDP [ZNF24], the protein stability index is, setting by setting: (treatment: DMSO) 5.18 ± 0.2; (treatment: MLN4924 1 uM, 8 h) 5.19 ± 0.17.

For TDILPQMITLSEAYIQIWKRRDND [USP39], the protein stability index runs as follows: (treatment: DMSO) 2.82 ± 0.25; (treatment: MLN4924 1 uM, 8 h) 2.79 ± 0.14.

Consider EFRAHRAVLAASSPYFHDQVLLKG [ZBTB22], for which the protein stability index by setting is: (treatment: DMSO) 2.57 ± 0.23; (treatment: MLN4924 1 uM, 8 h) 2.77 ± 0.4.

In the case of LDQALKEGGKLPPPPPPSYDPDYI [ZC2HC1A], the protein stability index runs as follows: (treatment: DMSO) 4.95 ± 0.16; (treatment: MLN4924 1 uM, 8 h) 4.89 ± 0.16.

For PPDLGAQRRHGWNPKDCSENIEVK [SPSB2], the protein stability index is, setting by setting: (treatment: DMSO) 4.84 ± 0.29; (treatment: MLN4924 1 uM, 8 h) 5.03 ± 0.14.

GGLFVGKEGPMIHSGSVVGAGLPQ [CLCN6]: the protein stability index by setting is: (treatment: DMSO) 3.39 ± 0.16; (treatment: MLN4924 1 uM, 8 h) 3.46 ± 0.44.

VIPECAHGGLYKPVQCHPSTGYCW [SMOC2]: the protein stability index by setting is: (treatment: DMSO) 2.38 ± 0.56; (treatment: MLN4924 1 uM, 8 h) 2.77 ± 0.9.

Turning to ELMPSSRLWSLSYTKLPSSLQSTG [SLC25A39], the protein stability index runs as follows: (treatment: DMSO) 2.48 ± 0.13; (treatment: MLN4924 1 uM, 8 h) 2.47 ± 0.14.

In turn, TQDGKEQPELPCAMAMGTPSTTER [PXN] gave a protein stability index (treatment: DMSO) of 5.21 ± 0.27 and a protein stability index (treatment: MLN4924 1 uM, 8 h) of 5.18 ± 0.3.

In the case of QSHPHLVAEAFRALASAQCPQFGI [SPOPL], the protein stability index worked out at 2.35 ± 0.4 (treatment: DMSO) and 2.16 ± 0.023 (treatment: MLN4924 1 uM, 8 h).

With MACAYAPSGCAIACGGLDNKCSVY [GNB5], the protein stability index was determined as 2.44 ± 0.13 (treatment: DMSO) and 2.31 ± 0.25 (treatment: MLN4924 1 uM, 8 h).

For HISNQKMPTGPPEDRLSLKFLPSS [DRICH1], the protein stability index runs as follows: (treatment: DMSO) 3.21 ± 0.14; (treatment: MLN4924 1 uM, 8 h) 3.44 ± 0.12.

Turning to PLDFEAYSAAALQEAMKRLRGAKA [FCHO1], the protein stability index was 3.46 ± 0.25 (treatment: DMSO) and 3.62 ± 0.29 (treatment: MLN4924 1 uM, 8 h).

PHQTSKMENLPGLASGPGKYMPHL had a protein stability index (treatment: DMSO) of 3.44 ± 0.23 and a protein stability index (treatment: MLN4924 1 uM, 8 h) of 3.65 ± 0.076.

Take DCTETIEGLELTEQTFSPAKSLSF [ADD1]: the protein stability index worked out at 4.16 ± 0.36 (treatment: DMSO) and 4.21 ± 0.26 (treatment: MLN4924 1 uM, 8 h).

For ELADARRALDDTARERAKLQIELG [LMNB1], the protein stability index is, setting by setting: (treatment: DMSO) 4.72 ± 0.075; (treatment: MLN4924 1 uM, 8 h) 4.69 ± 0.15.

For the sequence LAAAHGHSEVVEELVSADVIDLFD [RIPK4], the protein stability index runs as follows: (treatment: DMSO) 4.08 ± 0.37; (treatment: MLN4924 1 uM, 8 h) 4.5 ± 0.46.

Regarding KVENLTLKNHFQSVLEQLELQEKQ [TAF7L], the protein stability index runs as follows: (treatment: DMSO) 3.54 ± 0.13; (treatment: MLN4924 1 uM, 8 h) 3.96 ± 0.094.

On to SRGSRRRRRQRSEKKKAHYRQSSF [KCNA4], for which the protein stability index was 4.6 ± 0.29 (treatment: DMSO) and 4.8 ± 0.17 (treatment: MLN4924 1 uM, 8 h).

For the sequence LSSLGENPQRQGLLKTPWRAASAM [GCH1], the protein stability index was determined as 2.8 ± 0.23 (treatment: DMSO) and 3.17 ± 0.13 (treatment: MLN4924 1 uM, 8 h).

Regarding RFPLQEENSVTHHEVKCQGKPLAG [KMT5A], the protein stability index runs as follows: (treatment: DMSO) 4.69 ± 0.27; (treatment: MLN4924 1 uM, 8 h) 4.55 ± 0.38.

PVLLLQITVGLVFLCLQYRLRGKL [MOG] displayed a protein stability index (treatment: DMSO) of 3.23 ± 0.36 and a protein stability index (treatment: MLN4924 1 uM, 8 h) of 3.17 ± 0.25.

Sequence DSRRVTKENSHQVKEELSQKFDTL [TRIM63] yielded a protein stability index (treatment: DMSO) of 5.08 ± 0.066 and a protein stability index (treatment: MLN4924 1 uM, 8 h) of 5.02 ± 0.28.

In the case of LEQEQEFQVNKLMKKIKKLENDTI [CCDC6], the protein stability index (treatment: DMSO) turned out to be 4.31 ± 0.6 and the protein stability index (treatment: MLN4924 1 uM, 8 h) amounted to 4.19 ± 0.58.

RKDVCKSTHHGCEHICVNNGNSYI [MATN2] returned a protein stability index (treatment: DMSO) of 3.01 ± 0.32 and a protein stability index (treatment: MLN4924 1 uM, 8 h) of 3.07 ± 0.23.

Consider VSVESQQVQQVEVEATVKPELTAA [PRPH], for which the protein stability index is, setting by setting: (treatment: DMSO) 5.23 ± 0.089; (treatment: MLN4924 1 uM, 8 h) 5.25 ± 0.12.

Turning to LNPQLVQPAKKPLLWSDPADNKIV [ESRRG], the protein stability index came to 3.78 ± 0.23 (treatment: DMSO) and 3.83 ± 0.047 (treatment: MLN4924 1 uM, 8 h).

As for DVDLLDSKVIEILDSQTEIYQYVQ [DLC1], the protein stability index reads like this: (treatment: DMSO) 3.41 ± 0.31; (treatment: MLN4924 1 uM, 8 h) 3.62 ± 0.38.

As for EPCQLPSESPGSLSEVLAQPQGAL [DNAAF3], the protein stability index was determined as 5.16 ± 0.22 (treatment: DMSO) and 5.13 ± 0.39 (treatment: MLN4924 1 uM, 8 h).

As to GWGEVMLMADKVLRWERAWFPPAI [ARL6IP1], the protein stability index (treatment: DMSO) was found to be 2.87 ± 0.48 and the protein stability index (treatment: MLN4924 1 uM, 8 h) is 3.04 ± 0.78.

Consider SVRMRRAEKSVAPSNTGSRTTSVR [NEK8], for which the protein stability index came out at 4.62 ± 0.24 (treatment: DMSO) and 4.6 ± 0.26 (treatment: MLN4924 1 uM, 8 h).

The sequence LSEAYRVLSREQSRRSYDDQLRSG [DNAJC4] returned a protein stability index (treatment: DMSO) of 3.2 ± 0.3 and a protein stability index (treatment: MLN4924 1 uM, 8 h) of 3.03 ± 0.3.

As to DVSLVGGPADCSPPHPAPAPQHPA [DYRK1B], the protein stability index runs as follows: (treatment: DMSO) 5.02 ± 0.16; (treatment: MLN4924 1 uM, 8 h) 5.14 ± 0.12.

As for LEPKANLQAALQVLELHHSKLDTT [VPS39], the protein stability index reads like this: (treatment: DMSO) 4.2 ± 0.19; (treatment: MLN4924 1 uM, 8 h) 4.31 ± 0.19.
